Data reported in US20160130347A1 (Hoffmann-La Roche, published 2016).
Changes are numbered by the printed parent chain.

T1: human MCSP(D3 domain)-avi-his (human, UniProt Q6UVK1 1587-2221, limits assumed)
T1 construct: domain: D3 domain; also called hu-MCSP(D3 domain)-avi-his
T1 sequence (looked up): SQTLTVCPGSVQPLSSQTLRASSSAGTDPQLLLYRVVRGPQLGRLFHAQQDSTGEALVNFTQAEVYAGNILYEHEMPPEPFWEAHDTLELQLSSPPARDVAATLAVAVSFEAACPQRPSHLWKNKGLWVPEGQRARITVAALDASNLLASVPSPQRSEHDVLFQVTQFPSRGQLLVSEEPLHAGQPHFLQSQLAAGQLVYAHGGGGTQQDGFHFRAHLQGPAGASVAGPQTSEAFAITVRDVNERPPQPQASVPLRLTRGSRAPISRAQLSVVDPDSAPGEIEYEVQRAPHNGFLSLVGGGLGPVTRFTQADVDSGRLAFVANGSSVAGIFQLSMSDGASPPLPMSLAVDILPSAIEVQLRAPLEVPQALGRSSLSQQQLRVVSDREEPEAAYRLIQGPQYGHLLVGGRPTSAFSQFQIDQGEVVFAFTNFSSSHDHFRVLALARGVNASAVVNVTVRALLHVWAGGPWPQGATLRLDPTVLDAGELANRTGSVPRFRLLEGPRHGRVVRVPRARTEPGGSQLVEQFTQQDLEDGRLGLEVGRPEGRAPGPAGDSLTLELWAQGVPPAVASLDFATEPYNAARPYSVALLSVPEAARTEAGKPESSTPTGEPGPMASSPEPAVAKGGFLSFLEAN

B1: hu Fab (MCSP)-Crossfab (CD3) (bispecific antibody)
chain 1: EVQLQESGPGLVKPSQSLSLTCSVTGYSITSGYYWNWIRQFPGNKLEWMGYITYDGSNNYNPSLKNRISITRDTSKNQFFLKLNSVTTEDTATYYCADFDYWGQGTTLTVSSASTKGPSVFPLAPSSKSTSGGTAALGCLVKDYFPEPVTVSWNSGALTSGVHTFPAVLQSSGLYSLSSVVTVPSSSLGTQTYICNVNHKPSNTKVDKKVEPKSCDGGGGSGGGGSDIQMTQSPSSLSASVGDRVTITCRASQDIRNYLNWYQQKPGKAPKLLIYYTSRLESGVPSRFSGSGSGTDYTLTISSLQPEDFATYYCQQGNTLPWTFGQGTKVEIKSSASTKGPSVFPLAPSSKSTSGGTAALGCLVKDYFPEPVTVSWNSGALTSGVHTFPAVLQSSGLYSLSSVVTVPSSSLGTQTYICNVNHKPSNTKVDKKVEPKSC
light: DIVLTQSPSSLSASLGDRVTISCSASQGIRNYLNWYQQRPDGTVKLLIYYTSSLHSGVPSRFSGSGSGTDYSLTISNLEPEDIATYYCQQYSKLPWTFGGGTKLEIKRTVAAPSVFIFPPSDEQLKSGTASVVCLLNNFYPREAKVQWKVDNALQSGNSQESVTEQDSKDSTYSLSSTLTLSKADYEKHKVYACEVTHQGLSSPVTKSFNRGEC
chain 2: EVQLVESGGGLVQPGGSLRLSCAASGYSFTGYTMNWVRQAPGKGLEWVALINPYKGVSTYNQKFKDRFTISVDKSKNTAYLQMNSLRAEDTAVYYCARSGYYGDSDWYFDVWGQGTLVTVSSASVAAPSVFIFPPSDEQLKSGTASVVCLLNNFYPREAKVQWKVDNALQSGNSQESVTEQDSKDSTYSLSSTLTLSKADYEKHKVYACEVTHQGLSSPVTKSFNRGEC
B2: hu Fab (MCSP)=Crossfab (CD3) (bispecific antibody)
chain 1: B1 chain 1
chain 2: EVQLVESGGGLVQPGGSLRLSCAASGYSFTGYTMNWVRQAPGKGLEWVALINPYKGVSTYNQKFKDRFTISVDKSKNTAYLQMNSLRAEDTAVYYCARSGYYGDSDWYFDVWGQGTLVTVSSASVAAPSVFIFPPSDEQLKSGTASVVCLLNNFYPREAKVQWKVDNALQSGNSQESVTEQDSKDSTYSLSSTLTLSKADYEKHKVYACEVTHQGLSSPVTKSFNRGECDGGGGSGGGGSDIVLTQSPSSLSASLGDRVTISCSASQGIRNYLNWYQQRPDGTVKLLIYYTSSLHSGVPSRFSGSGSGTDYSLTISNLEPEDIATYYCQQYSKLPWTFGGGTKLEIKRTVAAPSVFIFPPSDEQLKSGTASVVCLLNNFYPREAKVQWKVDNALQSGNSQESVTEQDSKDSTYSLSSTLTLSKADYEKHKVYACEVTHQGLSSPVTKSFNRGEC
B3: M4-3(A7)/ML2 IgG (antibody, V domains shown)
VH: QVQLQESGPGLVKPSQTLSLTCTVSGGSITDGYYWNWIRQHPGKGLEWIGYITFDGRNNYNPSLKSRVTISRDTSKNQFSLKLSSVTAADTAVYYCADFDYWGQGTLVTVSS
VL: DIQMTQSPSSLSASVGDRVTITCRASQGIRNYLNWYQQKPGKAPKLLIYYTSSLHSGVPSRFSGSGSGTDFTLTISSLQPEDFATYYCQQYSKLPWTFGQGTKVEIK
notes: Human IgG1 format
B4: M4-3(C1)/ML2(G3) IgG (antibody, V domains shown)
VH: B3 VH with D31S, R57S
VL: DIQMTQSPSSLSASVGDRVTITCRASQGIRNYLNWYQQKPGKAPKLLIYYTSSLHSGVPSRFSGSGSGTDYTLTISSLQPEDFATYYCQQYSALPWTFGQGTKVEIKR
notes: Human IgG1; also called MCSP M4-3(C1)ML2(G3)
B5: M4-3(C1)/ML2(C5) IgG (antibody, V domains shown)
VH: B3 VH with D31S, R57S
VL: B3 VL with Q27R, N31E, S52G, K93E
notes: Human IgG1 format
B6: M4-3/ML2 (E10) IgG (antibody, V domains shown)
VH: B3 VH with D31S, F54Y, R57S
VL: B3 VL with Q27Y, N31G, Y87H
notes: Human IgG1 format
B7: M4-3/ML2(G3) IgG (antibody, V domains shown)
VH: B3 VH with D31S, F54Y, R57S
VL: B3 VL with F71Y, K93A
notes: Human IgG1 format
B8: M4-3(C1)/ML2 IgG (antibody, V domains shown)
VH: B3 VH with D31S, R57S
VL: B3 VL
notes: Human IgG1 format
B9: M4-3(A7)/ML2(C5) IgG (antibody, V domains shown)
VH: B3 VH
VL: B3 VL with Q27R, N31E, S52G, K93E
notes: Human IgG1 format
B10: M4-3(B7)/ML2 IgG (antibody, V domains shown)
VH: B3 VH with D31S, R57I
VL: B3 VL
notes: Human IgG1 format
B11: M4-3(A7)/ML2(G3) IgG (antibody, V domains shown)
VH: B3 VH
VL: B3 VL with F71Y, K93A
notes: Human IgG1 format
B12: M4-3/ML2 (E10/G3) IgG (antibody, V domains shown)
VH: B3 VH with D31S, F54Y, R57S
VL: B3 VL with Q27Y, N31G, Y87H, K93A
notes: Human IgG1 format; also called MCSP ML2(E10-G3)
B13: M4-3/ML2 (C5) IgG (antibody, V domains shown)
VH: B3 VH with D31S, F54Y, R57S
VL: B3 VL with Q27R, N31E, S52G, K93E
notes: Human IgG1 format
B14: M4-3(C1)/ML2(E10) IgG (antibody, V domains shown)
VH: B3 VH with D31S, R57S
VL: B3 VL with Q27Y, N31G, Y87H
notes: Human IgG1 format
B15: M4-3(A7)/ML2(E10) IgG (antibody, V domains shown)
VH: B3 VH
VL: B3 VL with Q27Y, N31G, Y87H
notes: Human IgG1 format
B16: M4-3/ML2 (C5/G3) IgG (antibody, V domains shown)
VH: B3 VH with D31S, F54Y, R57S
VL: B3 VL with Q27R, N31E, S52G, K93A
notes: Human IgG1 format; also called MCSP ML2(C5-G3)
B17: M4-3(D6)/ML2 IgG (antibody, V domains shown)
VH: B3 VH with D31S, R57K
VL: B3 VL
notes: Human IgG1 format
B18: M4-3(B8)/ML2 IgG (antibody, V domains shown)
VH: B3 VH with D31S
VL: B3 VL
notes: Human IgG1 format

The binders below were run against human MCSP on tumor cells (human, UniProt Q6UVK1 30-2322) (assay: cell-based or functional assay).
Sequence of human MCSP on tumor cells (Q6UVK1 30-2322): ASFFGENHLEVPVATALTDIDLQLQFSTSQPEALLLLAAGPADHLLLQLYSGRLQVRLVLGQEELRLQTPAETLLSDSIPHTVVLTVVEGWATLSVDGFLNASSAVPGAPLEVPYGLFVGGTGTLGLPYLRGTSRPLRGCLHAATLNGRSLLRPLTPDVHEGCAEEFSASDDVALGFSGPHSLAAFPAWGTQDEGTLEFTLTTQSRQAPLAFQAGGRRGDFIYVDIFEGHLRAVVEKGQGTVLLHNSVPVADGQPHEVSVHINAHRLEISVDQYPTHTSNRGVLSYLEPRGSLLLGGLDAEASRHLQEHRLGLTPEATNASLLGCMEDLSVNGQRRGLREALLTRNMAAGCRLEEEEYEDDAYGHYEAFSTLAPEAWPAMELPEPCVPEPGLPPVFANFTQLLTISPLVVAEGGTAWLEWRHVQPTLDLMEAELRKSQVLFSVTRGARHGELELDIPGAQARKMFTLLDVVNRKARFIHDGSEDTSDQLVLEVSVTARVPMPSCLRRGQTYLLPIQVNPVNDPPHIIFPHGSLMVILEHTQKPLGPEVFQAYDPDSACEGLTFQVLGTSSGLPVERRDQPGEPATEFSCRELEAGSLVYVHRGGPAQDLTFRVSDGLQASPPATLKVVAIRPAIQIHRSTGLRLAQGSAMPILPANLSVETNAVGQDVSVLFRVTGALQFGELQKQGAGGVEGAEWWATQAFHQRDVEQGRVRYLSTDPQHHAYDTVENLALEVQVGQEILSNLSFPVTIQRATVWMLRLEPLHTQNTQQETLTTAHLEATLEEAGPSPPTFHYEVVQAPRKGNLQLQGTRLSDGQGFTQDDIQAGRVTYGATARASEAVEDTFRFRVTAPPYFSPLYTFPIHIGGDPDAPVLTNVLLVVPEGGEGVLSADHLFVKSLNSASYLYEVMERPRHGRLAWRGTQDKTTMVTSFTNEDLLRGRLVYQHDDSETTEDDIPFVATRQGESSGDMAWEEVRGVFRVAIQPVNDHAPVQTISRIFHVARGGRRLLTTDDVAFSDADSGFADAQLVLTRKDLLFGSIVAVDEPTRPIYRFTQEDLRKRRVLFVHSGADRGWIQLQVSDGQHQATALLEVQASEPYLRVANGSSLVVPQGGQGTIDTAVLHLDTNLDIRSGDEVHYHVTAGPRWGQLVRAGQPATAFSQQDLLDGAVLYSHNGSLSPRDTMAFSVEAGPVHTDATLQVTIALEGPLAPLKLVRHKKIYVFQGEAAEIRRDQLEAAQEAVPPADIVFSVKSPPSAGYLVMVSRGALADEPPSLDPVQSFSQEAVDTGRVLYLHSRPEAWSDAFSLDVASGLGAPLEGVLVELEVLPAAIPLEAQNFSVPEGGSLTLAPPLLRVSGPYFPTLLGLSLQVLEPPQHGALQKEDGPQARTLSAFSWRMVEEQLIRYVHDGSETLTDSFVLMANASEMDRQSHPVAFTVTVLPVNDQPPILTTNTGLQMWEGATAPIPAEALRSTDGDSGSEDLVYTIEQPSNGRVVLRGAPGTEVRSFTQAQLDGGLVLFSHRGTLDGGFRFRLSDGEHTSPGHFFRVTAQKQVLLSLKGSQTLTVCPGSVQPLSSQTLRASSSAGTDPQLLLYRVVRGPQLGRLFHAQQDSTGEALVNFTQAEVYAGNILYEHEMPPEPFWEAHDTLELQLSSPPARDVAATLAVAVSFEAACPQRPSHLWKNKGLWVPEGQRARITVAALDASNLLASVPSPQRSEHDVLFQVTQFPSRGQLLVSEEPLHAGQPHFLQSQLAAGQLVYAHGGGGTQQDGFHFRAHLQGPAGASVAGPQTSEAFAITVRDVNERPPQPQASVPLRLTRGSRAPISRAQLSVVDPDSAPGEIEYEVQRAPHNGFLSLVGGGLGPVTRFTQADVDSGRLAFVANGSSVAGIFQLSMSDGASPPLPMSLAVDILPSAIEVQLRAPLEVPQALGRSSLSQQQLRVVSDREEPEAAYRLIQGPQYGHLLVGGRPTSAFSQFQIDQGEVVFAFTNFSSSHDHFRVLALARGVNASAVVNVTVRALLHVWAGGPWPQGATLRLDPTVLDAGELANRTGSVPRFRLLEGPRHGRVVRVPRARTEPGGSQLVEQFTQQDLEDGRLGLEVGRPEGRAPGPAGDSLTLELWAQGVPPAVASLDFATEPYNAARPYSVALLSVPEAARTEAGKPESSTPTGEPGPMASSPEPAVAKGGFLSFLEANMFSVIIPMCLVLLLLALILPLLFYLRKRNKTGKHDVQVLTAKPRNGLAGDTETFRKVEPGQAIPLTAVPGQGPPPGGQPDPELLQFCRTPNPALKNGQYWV

Row | Binder | EC50 of killing (LDH release) of MV-3 cells, human PBMCs, E:T 10:1, ~24 h
1 | B1 | 0.0254 nM
2 | B2 | 0.0898 nM

What follows are binders tested against human CD3 on T cells (human, UniProt P07766 23-126) (assay: cell-based or functional assay).
Sequence of human CD3 on T cells (P07766 23-126 limits assumed): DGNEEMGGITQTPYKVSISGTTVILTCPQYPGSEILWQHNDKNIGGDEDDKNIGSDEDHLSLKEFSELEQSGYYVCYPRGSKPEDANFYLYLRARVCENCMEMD

Row | Binder | EC50 of killing (LDH release) of MV-3 cells, human PBMCs, E:T 10:1, ~24 h
3 | B1 | 0.0254 nM
4 | B2 | 0.0898 nM

These binders were tested against T1, human MCSP(D3 domain)-avi-his (assay: ratio of ProteOn IgG KD against parental M4-3/ML2 IgG).
Procedure: (§1) Briefly, carboxymethylated dextran biosensor chips (CM5, GE Healthcare) were activated with N-ethyl-N′-(3-dimethylaminopropyl)-carbodiimide hydrochloride (EDC) and N-hydroxysuccinimide (NHS) according to the supplier's instructions. Anti-human F(ab′)2 fragment specific capture antibody was diluted with 10 mM sodium acetate, pH 5.0 at 50 μg/ml before injection at a flow rate of 10 μl/minute to achieve approximately up to 10.000 response units (RU) of coupled capture antibody. Following the injection of the capture antibody, 1 M ethanolamine is injected to block unreacted groups. For kinetics measurements, Fabs from bacterial supernatant or purified Fabs were injected at a flow rate of 10 ul/minute for 300 s and a dissociation of 300 s for capture baseline stabilization. Capture levels were in the range of 100-500 RU. […] The surface of the sensorchip was regenerated by injection of glycine pH 1.5 for 30 s at 90 ul/min followed by injection of NaOH for 20 s at the same flow rate. Association rates (kon) and dissociation rates (koff) were calculated using a simple one-to-one Langmuir binding model (ProteOn XPR36 Evaluation Software or Scrubber software (BioLogic)) by simultaneously fitting the association and dissociation sensorgrams. The equilibrium dissociation constant (KD) was calculated as the ratio koff/kon.
(§2) Method exactly as described for the Fab fragments, just purified IgG from mammalian production were used.

Row | Binder | fold increase over parent (IgG KD, comparative binding affinity)
5 | B3 | 2.5 fold
6 | B4 | 28.6 fold
7 | B5 | 10 fold
8 | B6 | 2 fold
9 | B7 | 6.7 fold
10 | B8 | 2.2 fold
11 | B9 | 28.6 fold
12 | B10 | 4 fold
13 | B11 | 28.6 fold
14 | B12 | 5 fold
15 | B13 | 5 fold
16 | B14 | 4 fold
17 | B15 | 6.7 fold
18 | B16 | 2.9 fold
19 | B17 | 5 fold
20 | B18 | 2.2 fold

Each binder was assayed against T2, cynomolgus MCSP D3 (cynomolgus) in the same assay as above.
T2 construct: domain: D3; also called Cyno MCSP; cynomolgus homologue
Procedure: as §1, §2

Row | Binder | fold increase over parent (IgG KD, comparative binding affinity)
21 | B3 | 2 fold
22 | B4 | 10 fold
23 | B5 | 6.7 fold
24 | B6 | 1 fold
25 | B7 | 3.3 fold
26 | B8 | 2.5 fold
27 | B9 | 10 fold
28 | B10 | 2.9 fold
29 | B11 | 10 fold
30 | B12 | 2.2 fold
31 | B13 | 2 fold
32 | B14 | 3.3 fold
33 | B15 | 2.9 fold
34 | B16 | 2 fold
35 | B17 | 2 fold
36 | B18 | 2 fold
